Experimental data taken from patent CN110563849A.

Target: PD-1-mFc (人PD-1胞外区加Fc纯化标签) (human) (UniProt Q15116)
Assay: ELISA of the subclone's supernatant on plate-coated PD-1 antigen

Sequence of UniProt Q15116 (Q15116 25-170): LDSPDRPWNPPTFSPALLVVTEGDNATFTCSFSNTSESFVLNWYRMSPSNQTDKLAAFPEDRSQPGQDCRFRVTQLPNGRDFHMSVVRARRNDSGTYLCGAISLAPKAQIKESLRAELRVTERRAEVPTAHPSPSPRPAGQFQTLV

- OD值: 1.02 OD
B1: 抗PD-1鼠源单克隆抗体 (阳性克隆2G8-1N8) (antibody, V domains shown)
VH: EVKLVESGGGLVKPGGSLKLSCAASGFTFSSYGMSWVRQTPEKRLEWVATISGGGSYTYYPDSVKGRFTISRDNAKNNLYLQMSSLRSEDTALYYCASRFGEAWFAYWGQGTLVTVSA
VL: DIKMTQSPSSMYASLGERVTITCKASQDINSYLSWFQQKPGKSPKTLIYRANRLVDGVPSRFSGSGSGQDYSLTISSLEYEDMGIYYCLQYDEFPLTFGAGTKLELK
